Assay results as given in the Human Domainome abundance scans (Beltran et al. 2025).

B1: Lysine-specific demethylase 5C, residues 319 to 373; numbered along this chain, P41229 (parent)
chain: AQFIESYVCRMCSRGDEDDKLLLCDGCDDNYHIFCLLPPLPEIPKGVWRCPKCVM

Variants of: B1
Assay: abundance fitness (aPCA) (normalised: wild type 0, dead -1); higher = more abundant; growth selection in yeast, the domain comes from the species named
Details: Homo sapiens

Abundance fitness, by site and new letter:
C53: K -0.921, D -0.889, W -1.08, E -0.952, R -1, G -0.865, I -0.941, M -0.713, L -0.909
P39: Q -0.276, T -0.599, L -0.473, D -0.233, E -0.025, G -0.217, Y -0.59, N -0.045, S 0.078, V -0.129
I33: K -0.423
L22: K -0.332, N -0.4, Y -1.07, G -0.912, M 0.05, A -0.243
V8: D -0.315, L -0.243, G -0.106, P -0.12, I -0.241, E -0.266
L37: V -0.083, Q -0.108, M 0.054, P -0.076, A -0.02, R 0.092, K 0.277, Y -0.328, C -0.137
S13: E 0.419, L 0.044, R 0.007, V -0.121, P -0.13, T -0.035, H -0.239, A -0.231, D -0.042, I -0.029
R49: P -0.949, K 0.205, N 0.268, H -0.134, F -0.358, D -0.865
P38: A -0.042, K -0.283, W -0.491, L -0.237, E -0.191, Q 0.178, C -0.166, Y -0.416
F34: D -0.149, T 0.039, E 0.021, W -0.087, V -0.078, M -0.165
D18: Y -0.284, W 0.035, S 0.028, L 0.052, N -0.087, H 0.324, I 0.125, A 0.112, T -0.065, E 0.042, G 0.183, K 0.184
I4: H -0.111, V -0.019, C -0.106, Q 0.451, E -0.145, R -0.3, F -0.098, P -0.118, L -0.338
L23: C -0.122, F -0.405, A 0.044, H -0.302, E -0.078, I -0.156, K 0.169
D28: S 0.148, R 0.225, A 0.092, T -0.494, V -0.527, P 0.259, L -0.294
L36: D -0.898, F -0.26, Q -0.555, R -0.732
P41: F -0.261, T -0.1, G -0.078, V -0.051, L 0.135, A -0.134, N -0.157, M -0.55, H -0.286, Q -0.051, R 0.126
D25: K -0.199, V -0.009, A 0.158, Y -0.44, R -0.058
D16: F 0.277, V -0.029, E -0.072, M 0.086, R -0.026, K -0.265, I 0.089, Q -0.16, G 0.085
G46: C -0.578, R -0.083, V -0.105, A -0.059, N -0.405, Y -0.366
L21: Q -0.353, F -0.078, Y -0.338, I -0.044, N -0.366, R -0.221, A -0.426
E17: H -0.245, S -0.052, G 0.023, D 0.078, Q -0.064, K -0.122
E5: C 0.046, L -0.378, M 0.145, R 0.046, V -0.481, P -0.435, G -0.128, S -0.125
K45: L -0.175, C -0.156, N -0.022, P -0.032
V47: K 0.154, D -0.064, Q 0.208, C -0.213, W -0.473, S 0.081, M -0.157, I -0.132, F 0.082
W48: I -0.14, V -0.78, T -1.05, N -0.853, Y -0.568, A -0.59
K20: A -0.065, P -0.043, T 0.096, V -0.253, M -0.596, Y -0.035
M11: R 0.073, S -0.138, C -0.085, I -0.121
K52: L -0.282, D 0.095, P 0.049, T 0.018, M -0.611, S -0.183
Y31: N -0.679, A -0.476, T -0.678, D -0.776, I -0.261, M -0.074, P -0.776, C -0.514
C35: R -0.41, E -0.794, P -0.638, Y -0.786, W -0.804, F -0.556, V -1.17
N30: D -0.774, Q 0.157, W -0.117, K 0.098, I 0.219, R 0.071, E -0.052
E42: K -0.506, R -0.072, V -0.157, D 0.043, L -0.431, T 0.068, P -0.611, A -0.05
C9: S -0.82, G -0.655, R -0.827, T -0.726, W -0.937, A -0.797, L -0.978, Y -0.955, V -0.792
R10: Q -0.609, E -0.1, T 0.082, C -0.108
G15: F -0.008, S 0.155, C 0.167, Y -0.027, W -0.169, N -0.231, K 0.086
V54: R -0.131, Q -0.54, H 0.002, G -0.27, K -0.024, M -0.145
S6: G -0.042, A -0.068
C12: M -0.669, G -0.756, S -0.855
H32: E -0.945, R -0.675, N -0.672, S -0.984, Y -0.972, I -0.859, C -0.677, W -0.881
C50: M -1.17, L -0.702, A -0.887, W -0.823, T -1.05
A1: W -0.242, V -0.297, L -0.331, I 0.146, M 0.135, D -0.009, E -0.143
Y7: K 0.155, L -0.057
M55: T -0.183, L -0.154, V 0.015, P 0.446
I43: G -0.302, L 0.101, P -0.307, T -0.467, W -0.202, D -0.462
D29: F -0.128, G -0.077, E 0.017, M -0.237, R 0.004, A 0.06
F3: W -0.639, Q -0.201, V 0.042, M 0.095, A -0.12
C27: V -0.752, R -0.759, T -0.694, I -0.923, A -0.921, W -1.06, H -0.905, Y -0.779
Q2: M -0.109, E -0.258, K 0.247, H -0.187, C -0.446, F -0.531, Y -0.053, A -0.273, T 0.203
P51: K 0.131, S 0.138
G26: F -0.047, W -0.375, D -0.034
D19: G 0.08, C 0.019, H -0.032, L -0.162, E -0.091, A 0.063, W -0.146, F -0.103, R -0.03, N 0.04, Y -0.335
